Residue numbers refer to the chain shown, from its start. Names may count otherwise. Values belong to the binder of their own block, whether it stands above or below them.
Assays:
[1] = biological target: T1, recombinant human 14-3-3ζ protein (human), P63104; assay: AUC; 'sedimentation equilibration analysis'; 25 μM 14-3-3ζ incubated with or without PTA at 25 °C for 8 h, centrifuged at 20 °C and 60000 rpm for 7 h; c(s) by SEDPHAT; monomer to dimer; details: remark: other sources report otherwise
T1 chain: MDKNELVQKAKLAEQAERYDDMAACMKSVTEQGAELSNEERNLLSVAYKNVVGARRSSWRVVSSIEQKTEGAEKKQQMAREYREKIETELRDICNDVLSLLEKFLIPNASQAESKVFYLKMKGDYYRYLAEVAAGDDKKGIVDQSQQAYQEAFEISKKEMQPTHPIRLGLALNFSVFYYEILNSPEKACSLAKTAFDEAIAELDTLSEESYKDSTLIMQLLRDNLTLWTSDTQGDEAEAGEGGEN

[2] = biological target: the molecule itself; assay: cross-linking; 0.025 mM 14-3-3ζ incubated with or without PTA at 25 °C for 8 h, cross-linked with 1 mM disuccinimidyl suberate for 30 min (20 mM HEPES, 100 mM KCl, 1 mM dithiothreitol, pH 8.0), quenched with 50 mM Tris-HCl; SDS-PAGE with silver staining, and LC-MS

percent dimer (with PTA) [1]: 77.5% | percent dimer (without PTA) [1]: 69.1% | stoichiometry N [1]: 2
B1: recombinant human 14-3-3ζ protein, P63104 1-245 (natural protein)
chain: T1 chain

B2: 14-3-3ζ mutant (K158R) (natural protein, UniProt P63104 1-245, looked up)
chain: T1 chain with K158R
notes: 14-3-3ζ with K158R
binding result [2]: binds
